The values that follow come from IntAct's records for PubMed 16873060.

To fix the notation:
B1: Protein PML (Homo sapiens), P29590 (parent)
chain: MEPAPARSPRPQQDPARPQEPTMPPPETPSEGRQPSPSPSPTERAPASEEEFQFLRCQQCQAEAKCPKLLPCLHTLCSGCLEASGMQCPICQAPWPLGADTPALDNVFFESLQRRLSVYRQIVDAQAVCTRCKESADFWCFECEQLLCAKCFEAHQWFLKHEARPLAELRNQSVREFLDGTRKTNNIFCSNPNHRTPTLTSIYCRGCSKPLCCSCALLDSSHSELKCDISAEIQQRQEELDAMTQALQEQDSAFGAVHAQMHAAVGQLGRARAETEELIRERVRQVVAHVRAQERELLEAVDARYQRDYEEMASRLGRLDAVLQRIRTGSALVQRMKCYASDQEVLDMHGFLRQALCRLRQEEPQSLQAAVRTDGFDEFKVRLQDLSSCITQGKDAAVSKKASPEAASTPRDPIDVDLPEEAERVKAQVQALGLAEAQPMAVVQSVPGAHPVPVYAFSIKGPSYGEDVSNTTTAQKRKCSQTQCPRKVIKMESEEGKEARLARSSPEQPRPSTSKAVSPPHLDGPPSPRSPVIGSEVFLPNSNHVASGAGEAEERVVVISSSEDSDAENSSSRELDDSSSESSDLQLEGPSTLRVLDENLADPQAEDRPLVFFDLKIDNETQKISQLAAVNRESKFRVVIQPEAFFSIYSKAVSLEVGLQHFLSFLSSMRRPILACYKLWGPGLPNFFRALEDINRLWEFQEAISGFLAALPLIRERVPGASSFKLKNLAQTYLARNMSERSAMAAVLAMRDLCRLLEVSPGPQLAQHVYPFSSLQCFASLQPLVQAAVLPRAEARLLALHNVSFMELLSAHRRDRQGGLKKYSRYLSLQTTTLPPAQPAFNLQALGTYFEGLLEGPALARAEGVSTPLAGRGLAERASQQS

The variants in this assay derive from B1. Particulars: with csk21_human CSNK2A1, P68400.
Sequence of csk21_human CSNK2A1, P68400 (P68400 whole entry, looked up): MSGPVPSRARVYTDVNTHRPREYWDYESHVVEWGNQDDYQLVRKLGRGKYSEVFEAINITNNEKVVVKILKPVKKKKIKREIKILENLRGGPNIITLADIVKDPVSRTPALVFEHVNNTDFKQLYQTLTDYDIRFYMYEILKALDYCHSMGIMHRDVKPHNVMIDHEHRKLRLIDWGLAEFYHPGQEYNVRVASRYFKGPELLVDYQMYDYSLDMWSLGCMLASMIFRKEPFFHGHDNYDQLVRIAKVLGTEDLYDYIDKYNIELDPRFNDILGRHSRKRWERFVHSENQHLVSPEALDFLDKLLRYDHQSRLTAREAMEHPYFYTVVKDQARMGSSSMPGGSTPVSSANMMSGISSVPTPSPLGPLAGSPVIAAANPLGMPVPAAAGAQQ
With S518A, the “effect of a mutation on the interaction” value is reported as “decreasing interaction”.
